The record followed here is patent US20260232827A1 (Zymeworks, published 2026).

Holding throughout (experiment): flow cytometry, transfected HEK293-6e cells, antibody 20 nM
Assay [1] addresses T1, Full length human NaPi2b (sodium-dependent phosphate transporter 2B, SLC34A2) (human, UniProt O95436 1-690).
T1 construct: also called huNaPi2b; CL_#13432
T1 sequence: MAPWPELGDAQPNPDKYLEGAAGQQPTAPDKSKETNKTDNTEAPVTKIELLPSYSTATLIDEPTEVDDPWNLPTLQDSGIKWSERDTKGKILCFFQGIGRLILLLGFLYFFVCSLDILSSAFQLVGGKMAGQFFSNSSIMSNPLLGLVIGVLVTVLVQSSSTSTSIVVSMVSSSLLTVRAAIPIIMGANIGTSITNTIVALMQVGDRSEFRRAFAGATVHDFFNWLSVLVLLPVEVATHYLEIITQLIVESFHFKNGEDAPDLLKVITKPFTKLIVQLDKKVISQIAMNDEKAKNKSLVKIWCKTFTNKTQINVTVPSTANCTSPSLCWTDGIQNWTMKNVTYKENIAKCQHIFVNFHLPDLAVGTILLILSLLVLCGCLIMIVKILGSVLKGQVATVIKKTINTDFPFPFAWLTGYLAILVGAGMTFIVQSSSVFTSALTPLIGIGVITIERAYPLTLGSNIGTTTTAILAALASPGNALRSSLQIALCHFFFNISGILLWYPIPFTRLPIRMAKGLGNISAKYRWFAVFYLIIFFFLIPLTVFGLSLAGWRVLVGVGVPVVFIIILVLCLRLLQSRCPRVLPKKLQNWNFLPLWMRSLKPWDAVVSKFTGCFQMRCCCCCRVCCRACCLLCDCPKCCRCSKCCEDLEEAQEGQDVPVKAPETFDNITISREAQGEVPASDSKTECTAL

Assay [2] deals with T2, Construct 1 (chimeric human NaPi2b, swap in NaPi2c in 239-259) (human).
T2 construct: also called CL_#29914

For assay [3], the target named is T3, Construct 7 (human NaPi2b del 317-326) (human, UniProt O95436 1-690).
T3 construct: also called CL_#29921
T3 sequence: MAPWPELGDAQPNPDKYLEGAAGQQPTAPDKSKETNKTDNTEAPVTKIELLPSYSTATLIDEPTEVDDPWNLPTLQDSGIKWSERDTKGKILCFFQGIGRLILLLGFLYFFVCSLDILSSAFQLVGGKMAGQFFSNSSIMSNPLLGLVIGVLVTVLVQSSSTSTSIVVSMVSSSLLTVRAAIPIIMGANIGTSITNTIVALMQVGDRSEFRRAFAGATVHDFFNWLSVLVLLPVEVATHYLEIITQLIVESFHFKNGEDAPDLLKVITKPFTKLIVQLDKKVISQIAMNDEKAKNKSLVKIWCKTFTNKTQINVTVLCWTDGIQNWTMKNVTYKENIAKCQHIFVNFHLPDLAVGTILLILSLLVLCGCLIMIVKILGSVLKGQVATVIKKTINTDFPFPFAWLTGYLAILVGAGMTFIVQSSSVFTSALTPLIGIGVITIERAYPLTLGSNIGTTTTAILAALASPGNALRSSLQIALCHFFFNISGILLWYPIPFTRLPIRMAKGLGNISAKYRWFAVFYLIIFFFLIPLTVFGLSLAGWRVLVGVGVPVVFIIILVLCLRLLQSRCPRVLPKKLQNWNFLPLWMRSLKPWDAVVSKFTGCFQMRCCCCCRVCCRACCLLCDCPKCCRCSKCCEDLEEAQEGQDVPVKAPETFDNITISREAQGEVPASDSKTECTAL

In assay [4] the target is T4, Construct 6 (human NaPi2b del 317-333) (human, UniProt O95436 1-690).
T4 construct: also called CL_#29919
T4 sequence: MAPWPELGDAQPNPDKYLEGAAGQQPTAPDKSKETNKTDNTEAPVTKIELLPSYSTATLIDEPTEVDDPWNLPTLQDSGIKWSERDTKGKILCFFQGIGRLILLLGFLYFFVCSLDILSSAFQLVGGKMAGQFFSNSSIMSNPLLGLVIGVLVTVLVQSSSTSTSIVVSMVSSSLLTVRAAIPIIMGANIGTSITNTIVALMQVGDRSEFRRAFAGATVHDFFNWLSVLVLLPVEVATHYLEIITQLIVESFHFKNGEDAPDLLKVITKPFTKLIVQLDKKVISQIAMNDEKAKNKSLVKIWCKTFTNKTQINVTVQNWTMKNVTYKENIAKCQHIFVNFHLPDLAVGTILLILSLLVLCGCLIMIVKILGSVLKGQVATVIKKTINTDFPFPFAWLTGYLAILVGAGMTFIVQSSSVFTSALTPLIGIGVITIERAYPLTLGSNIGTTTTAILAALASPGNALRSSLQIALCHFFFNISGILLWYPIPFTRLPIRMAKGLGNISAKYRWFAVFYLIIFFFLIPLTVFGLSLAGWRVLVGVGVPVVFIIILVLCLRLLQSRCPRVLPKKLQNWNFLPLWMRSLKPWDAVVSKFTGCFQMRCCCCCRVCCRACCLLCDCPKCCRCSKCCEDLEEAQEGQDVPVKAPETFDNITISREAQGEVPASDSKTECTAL

B1: lifastuzumab (v18993), reference anti-NaPi2b antibody (antibody, human IgG1, kappa)
heavy 1: GEVQLVESGGGLVQPGGSLRLSCAASGFSFSDFAMSWVRQAPGKGLEWVATIGRVAFHTYYPDSMKGRFTISRDNSKNTLYLQMNSLRAEDTAVYYCARHRGFDVGHFDFWGQGTLVTVSSASTKGPSVFPLAPSSKSTSGGTAALGCLVKDYFPEPVTVSWNSGALTSGVHTFPAVLQSSGLYSLSSVVTVPSSSLGTQTYICNVNHKPSNTKVDKKVEPKSCDKTHTCPPCPAPELLGGPSVFLFPPKPKDTLMISRTPEVTCVVVDVSHEDPEVKFNWYVDGVEVHNAKTKPREEQYNSTYRVVSVLTVLHQDWLNGKEYKCKVSNKALPAPIEKTISKAKGQPREPQVYVYPPSRDELTKNQVSLTCLVKGFYPSDIAVEWESNGQPENNYKTTPPVLDSDGSFALVSKLTVDKSRWQQGNVFSCSVMHEALHNHYTQKSLSLSPG
heavy 2: not shown
light: GDIQMTQSPSSLSASVGDRVTITCRSSETLVHSSGNTYLEWYQQKPGKAPKLLIYRVSNRFSGVPSRFSGSGSGTDFTLTISSLQPEDFATYYCFQGSFNPLTFGQGTKVEIKRTVAAPSVFIFPPSDEQLKSGTASVVCLLNNFYPREAKVQWKVDNALQSGNSQESVTEQDSKDSTYSLSSTLTLSKADYEKHKVYACEVTHQGLSSPVTKSFNRGEC
On to B1, for which the “Background-Subtracted AF647 Mean Fluorescence Intensity” value in assay [1] was 1370 MFI; in assay [2], 1700 MFI; in assay [3], 35 MFI; in assay [4], -3 MFI.

B2: palivizumab (v21995), anti-RSV antibody, negative control (antibody, human IgG1, kappa, V domains shown)
VH: QVTLRESGPALVKPTQTLTLTCTFSGFSLSTSGMSVGWIRQPPGKALEWLADIWWDDKKDYNPSLKSRLTISKDTSKNQVVLKVTNMDPADTATYYCARSMITNWYFDVWGAGTTVTVSS
VL: DIQMTQSPSTLSASVGDRVTITCKSQLSVGYMHWYQQKPGKAPKLLIYDTSKLASGVPSRFSGSGSGTEFTLTISSLQPDDFATYYCFQGSGYPFTFGGGTKLEIKR
Take B2: the “Background-Subtracted AF647 Mean Fluorescence Intensity” value in assay [1] is 13 MFI; in assay [2] it was -27 MFI; in assay [3] it was -85 MFI; in assay [4], 1 MFI.

B3: MX35 (v18992), reference anti-NaPi2b antibody (antibody, human IgG1, kappa)
heavy 1: GQVQLVQSGAEVVKPGASVKMSCKASGYTFTGYNIHWVKQAPGQGLEWIGAIYPGNGDTSYKQKFRGRATLTADTSTSTVYMELSSLRSEDSAVYYCARGETARATFAYWGQGTLVTVSSASTKGPSVFPLAPSSKSTSGGTAALGCLVKDYFPEPVTVSWNSGALTSGVHTFPAVLQSSGLYSLSSVVTVPSSSLGTQTYICNVNHKPSNTKVDKKVEPKSCDKTHTCPPCPAPELLGGPSVFLFPPKPKDTLMISRTPEVTCVVVDVSHEDPEVKFNWYVDGVEVHNAKTKPREEQYNSTYRVVSVLTVLHQDWLNGKEYKCKVSNKALPAPIEKTISKAKGQPREPQVYVYPPSRDELTKNQVSLTCLVKGFYPSDIAVEWESNGQPENNYKTTPPVLDSDGSFALVSKLTVDKSRWQQGNVFSCSVMHEALHNHYTQKSLSLSPG
heavy 2: not shown
light: GDIQMTQSPSSLSASVGDRVTITCSASQDIGNFLNWYQQKPGKTVKVLIYYTSSLYSGVPSRFSGSGSGTDYTLTISSLQPEDFATYYCQQYSKLPLTFGQGTKLELKRTVAAPSVFIFPPSDEQLKSGTASVVCLLNNFYPREAKVQWKVDNALQSGNSQESVTEQDSKDSTYSLSSTLTLSKADYEKHKVYACEVTHQGLSSPVTKSFNRGEC
In the case of B3, the “Background-Subtracted AF647 Mean Fluorescence Intensity” value in assay [1] is 1250 MFI; in assay [2], 1820 MFI; in assay [3] it was 233 MFI; in assay [4], 67 MFI.
